In patent publication US20180221438A1, “MODULATING URACIL-DNA GLYCOSYLASE AND USES THEREOF” (Adaerata Limited Partnership, priority 2015, published 2018):

Experiments:
Format in all cases: cell-based, mouse
CH12F3 cells [1] = experiment: Proliferation of CH12F3 cells after CSR stimulation (cell number, CFSE dilution); details: CH12F3 Ugi cells stimulated for CSR; prevented by AID knockdown
Method: (§1) B cell lymphoma cells, CH12F3-2 cells, were cultured in RPMI medium supplemented with 10% FBS, 0.05% 2- mercaptoethanol and 5% NCTC 109 (Sigma). CH12F3-2 cells stably expressing Ugi were obtained by retroviral delivery using pMIG vector as described before ^39. Class switching induction to IgA in CH12F3-2 cells was performed as previously published ^39. CSR to IgA in CH12F3-2 cells was determined with an Accuri C6™ Flow Cytometer (BD Biosciences). Mouse B cells were purified from freshly isolated splenocytes using anti-CD43 magnetic beads as described ^70. CSR was induced using 5 ? g/ml LPS (Sigma) and 20 ng/ml IL-4 (Preprotech). Cells were harvested for ChIP or metaphase spreads and FISH at 24 h post stimulation.

CH12F3 cells [2] = experiment: Anaphase bridges by DAPI staining in CH12F3 cells expressing E6 and E7; details: CH12F3 Ugi with E6 and E7, vs CH12F3 Ugi shAID and control GFP cells
From the text: Anaphase cells were visualized by DAPI staining of cells fixed with 2% paraformaldehyde in 1X PBS and attached to slides pre-treated with poly-lysine and analyzed as described previously ^33.

CH12F3 cells [3] = experiment: ChIP for DNA damage marker at the telomeres; details: CH12F3 Ugi vs CH12F3 GFP
Method: ChIPs to evaluate interaction with the telomeric chromatin or the Ig locus were performed as described previously ^39,61. Briefly, cells were cross-linked with 1% formaldehyde for 20 min at room temperature and reaction was stopped by addition of glycine to 125 mM final concentration. Cells were washed twice with cold PBS, harvested and kept at −80° C. O.N. Samples were resuspended in RIPA buffer (150 mM NaCl, 1% [v/v] Igepal CA-630, 0.5% [w/v] Sodium Deoxycholate, 0.1% [w/v] SDS, 50 mM Tris-HCl at pH 8, 5 mM EDTA, protease and phosphatase inhibitors) and sonicated to generate DNA fragments <500 bp using a Bioruptor™ Next Gen (Diagenode).
In order to increase the sensitivity of the ChIP assays and evaluate the presence of AID at the telomeres we performed the immunoprecipitations with fractions enriched in crosslinked chromatin. For this goal B cells fixed with 1% formaldehyde as described above were resuspended in RIPA buffer, sonicated during 90 seconds using a Bioruptor™ Next Gen (Diagenode), and the lysates were then spun down briefly (2000g, for 5 min at 4 C) to remove debris. […] Samples were then clarified by centrifugation at 20,000 RPM (4° C.) and their protein content was measured using the BCA method (Biorad). […]

CH12F3 cells [4] = experiment: FISH of metaphase chromosomes for sister telomere loss (STL) in CH12F3 cells
Method: as §1
For metaphase analysis cells were incubated with 50 ng/ml colcemide in cell culture media for 3 hours, harvested by trypsinization, incubated for 10 min at RT in 75 mM KCl, and fixed in freshly prepared methanol:glacial acetic acid (3:1 v/v). Cells were stored at 4° C. and when needed dropped onto wet slides and air-dried. For FISH analysis of the metaphases the cells were pre-treated with 0.05% w/v pepsin in 10 mM HCl during 10 minutes at 37° C. […] Finally, the samples were analyzed as described above. […]

B1: Ugi: Uracil Glycosylase Inhibitor of Bacillus subtilis bacteriophage PBS1/PBS2, small protein (9.5 kDa), SEQ ID NO: 29; expressed in cells by retroviral delivery (protein)
chain: MTNLSDIIEKETGKQLVIQESILMLPEEVEEVIGNKPESDILVHTAYDESTDENVMLLTSDAPEYKPWALVIQDSNGENKIKML
modifications: bacillus subtilis
notes: expressed in cells by retroviral delivery
growth (total cell number or CFSE dilution assay) (CH12F3 cells [1]): reduced growth | anaphase bridges (CH12F3 cells [2]): significantly accumulated anaphase bridges | phospho-ser129-H2AX at the telomeres (CH12F3 cells [3]): AID-dependent accumulation of phospho-ser129-H2AX | STL (CH12F3 cells [4]; CH12F3 Ugi cells expressing human AID, without inducing class switching, vs CH12F3 GFP): significant increase in STL | metaphase chromosomes with STL (CH12F3 cells [4]; activated CH12F3 cells expressing Ugi vs CH12F3 cells expressing GFP alone): significant increase in metaphase chromosomes with STL
